Laboratory results: PMC5402868

Key:
[1] = target: α-synuclein-YFP transgene product in C. elegans (UniProt P37840); test: FRET or BRET
[2] = target: α-synuclein-YFP fusion protein (recombinant) (UniProt P37840); test: FRET or BRET

decrease of mean YFP fluorescence lifetime during ageing [1] [ps] | mean YFP fluorescence lifetime in cells, day 4 [2] [ps] | mean YFP fluorescence lifetime, day 4 (oligomeric species) [2] [ps] | Substance
130 | – | – | α-synuclein-YFP transgene product in C. elegans (from UniProt P37840 1-140) (natural protein)
– | 1480 | 2960 | α-synuclein-YFP fusion protein (recombinant) (from UniProt P37840 1-140) (natural protein)
